# Experimental data reported in US6423500 (SCHERING, dated 2002).
# T1: human IL-10 receptor (human, UniProt Q13651 22-578)
# T1 construct: Expressed on transfected COS7 cells and Ba/F3 (Ba8.1) cells; The native IL-10 receptor on human cell lines (JY, TF-1, BJAB, Ramos, BH5) is written as this same molecule; also called hIL-10R; human IL-10 receptor component
# T1 sequence: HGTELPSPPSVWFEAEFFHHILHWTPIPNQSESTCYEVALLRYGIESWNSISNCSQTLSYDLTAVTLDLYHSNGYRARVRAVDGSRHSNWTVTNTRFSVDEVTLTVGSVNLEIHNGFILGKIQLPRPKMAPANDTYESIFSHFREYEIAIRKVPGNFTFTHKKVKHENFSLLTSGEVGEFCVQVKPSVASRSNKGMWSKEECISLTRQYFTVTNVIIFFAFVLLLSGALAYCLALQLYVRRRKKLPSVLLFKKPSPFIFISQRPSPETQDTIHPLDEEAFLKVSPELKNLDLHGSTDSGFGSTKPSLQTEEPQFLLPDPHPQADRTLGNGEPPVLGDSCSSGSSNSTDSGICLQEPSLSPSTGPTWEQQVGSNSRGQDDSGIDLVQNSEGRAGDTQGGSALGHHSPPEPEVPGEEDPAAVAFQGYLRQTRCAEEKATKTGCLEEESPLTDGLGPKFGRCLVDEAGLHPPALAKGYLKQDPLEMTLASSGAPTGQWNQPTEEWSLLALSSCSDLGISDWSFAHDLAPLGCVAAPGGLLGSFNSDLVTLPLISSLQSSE
# T2: mouse IL-10 receptor (mouse, UniProt Q61727 17-575)
# T2 construct: Expressed on transfected COS7 cells; the native receptor on mouse cell lines (MC/9, J774, WEHI 265.1) is written as this same molecule; also called mIL-10R; mouse IL-10 receptor component
# T2 sequence: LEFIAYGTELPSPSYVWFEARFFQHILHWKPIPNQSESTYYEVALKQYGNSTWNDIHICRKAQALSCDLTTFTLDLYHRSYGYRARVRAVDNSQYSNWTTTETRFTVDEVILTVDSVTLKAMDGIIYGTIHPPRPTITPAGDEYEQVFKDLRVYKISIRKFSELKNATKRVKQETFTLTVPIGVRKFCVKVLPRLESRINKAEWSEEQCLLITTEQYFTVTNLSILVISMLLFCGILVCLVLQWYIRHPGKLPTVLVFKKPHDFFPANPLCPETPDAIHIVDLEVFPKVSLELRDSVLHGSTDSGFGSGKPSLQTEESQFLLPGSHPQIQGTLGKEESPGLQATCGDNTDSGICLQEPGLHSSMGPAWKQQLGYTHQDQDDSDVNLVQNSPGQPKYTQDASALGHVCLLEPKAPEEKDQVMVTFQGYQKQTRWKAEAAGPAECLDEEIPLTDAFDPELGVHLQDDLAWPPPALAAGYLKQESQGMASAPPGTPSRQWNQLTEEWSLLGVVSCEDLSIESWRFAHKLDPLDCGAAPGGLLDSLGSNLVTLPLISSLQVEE
# B1: human IL-10 (ligand, UniProt P22301 19-178, looked up)
# chain: SPGQGTQSENSCTHFPGNLPNMLRDLRDAFSRVKTFFQMKDQLDNLLLKESLLEDFKGYLGCQALSEMIQFYLEEVMPQAENQDPDIKAHVNSLGENLKTLRLRLRRCHRFLPCENKSKAVEQVKNAFNKLQEKGIYKAMSEFDIFINYIEAYMTMKIRN
# modifications: radioiodinated (125I, lactoperoxidase method) where used as labeled ligand; positions not given
# notes: mature; Labeled and unlabeled hIL-10 are treated as one molecule; also called hIL-10; human interleukin-10
# B2: mouse IL-10 (ligand, UniProt P18893 19-178, looked up)
# chain: SRGQYSREDNNCTHFPVGQSHMLLELRTAFSQVKTFFQTKDQLDNILLTDSLMQDFKGYLGCQALSEMIQFYLVEVMPQAEKHGPEIKEHLNSLGEKLKTLRMRLRRCHRFLPCENKSKAVEQVKSDFNKLQDQGVYKAMNEFDIFINCIEAYMMIKMKS
# notes: mature; also called mIL-10; murine IL-10
# What was measured:
# human IL-10 receptor [1] = target: T1, human IL-10 receptor; test: Scatchard analysis of 125I-hIL-10 binding to Ba8.1 cells, repeat experiments
# Description: (§1) Values for Kd and receptor number were obtained by Scatchard analysis (23, 33, 34).
# mouse IL-10 receptor [2] = target: T2, mouse IL-10 receptor; test: saturation binding of iodinated hIL-10 to MC/9 cells, Scatchard analysis (EBDA)
# Protocol: (§2) Scatchard analysis was performed on the data points obtained using the EBDA Program (Elsevier-Biosoft, Cambridge, U.K.). Antibody inhibition was performed under the above binding conditions but with the addition of a 100-fold molar excess of each of the indicated monoclonal antibodies. Cytokine specificity was determined under similar conditions but with the addition of 500-fold molar excess of the cytokines indicated.
# human IL-10 receptor [3] = target: T1, human IL-10 receptor; test: saturation binding of iodinated hIL-10 to COS7 cells transfected with human clone SW8.1, Scatchard plot
# Protocol: (§3) Binding assays were performed. […] For FIGS. 16 and 17, the highest concentration was 1 nM. Background was determined by performing binding at 500-fold molar excess. Points represent averages of duplicates.
# human IL-10 receptor [4] = target: T1, human IL-10 receptor; test: saturation binding of iodinated hIL-10 to JY cells, Scatchard analysis (EBDA)
# Protocol: as §2
# [5] = target: IL-10 receptors on JY and MC/9 cells; test: saturation binding of iodinated hIL-10 to JY and MC/9 cells, several independent experiments
# human IL-10 receptor [6] = target: T1, human IL-10 receptor; test: Scatchard analysis of 125I-hIL-10 binding to Ba8.1 cells (Ba/F3 expressing hIL-10R), experiment shown
# Description: as §1
# human IL-10 receptor [7] = target: T1, human IL-10 receptor; test: saturation binding of iodinated hIL-10 to JY cells, Scatchard analysis
# Protocol: as §2
# mouse IL-10 receptor [8] = target: T2, mouse IL-10 receptor; test: saturation binding of iodinated hIL-10 to COS7 cells transfected with mouse clone m3.14, Scatchard plot
# Protocol: as §3
# mouse IL-10 receptor [9] = target: T2, mouse IL-10 receptor; test: FACS competition against FLAG-mIL-10 on MC/9 and J774 cells
binder,measurement,setting,value
B1,Kd,human IL-10 receptor [1],0.2 to 0.25 nM
same,Kd,mouse IL-10 receptor [2],0.049 nM
same,Kd,human IL-10 receptor [3],0.12 nM
same,Kd,human IL-10 receptor [4],0.14 nM
same,Kd,[5],0.05 to 0.17 nM
same,Kd,human IL-10 receptor [6],~0.25 nM
same,Kd,human IL-10 receptor [7],~0.15 nM
same,Kd,mouse IL-10 receptor [8],0.083 nM
B2,binding result,mouse IL-10 receptor [9],binds
